From patent US20250250322A1 (CHILDREN S HOSPITAL OF PHILADELPHIA, published 2025)

Target: T1, Factor IXa (UniProt P00740 47-191; P00740 227-461)
T1 construct: also called FIXa
Experiment: functional Kd from intrinsic Xase FXa-generation assay; 0.25 nM FVIIIa, 0-20 nM FIXa, 200 nM FX, 20 uM phospholipids
Protocol: Kinetic analysis of FXa generation was performed by an intrinsic Xase assay, as described with modifications (Wilhelm, et al. (2021) Blood 137:2532-2543; Lollar, et al. (1989) Biochemistry 28 (2): 666-674). Activated FVIII (FVIIIa) was generated by incubating 25 nM FVIII with 100 nM thrombin for 30 seconds and thereafter quenched with hirudin (150 nM). […] At various time intervals (0.25-2 minutes), aliquots of the reaction mixture were quenched in 20 mM HEPES, 150 mM NaCl, 25 mM EDTA, 0.1% polyethylene glycol-8000, pH 7.4. The amount of FXa in each quenched sample was assessed using Spectrozyme® Xa by measuring absorbance at 405 nm in SpectraMax® 190 Microplate reader (Molecular Devices) and comparing the results to a prepared FXa standard curve.
TABLE 1 Biochemical Characterization of FVIII Proteins. Specific activity was determined by an aPTT based clotting assay measurement of clotting activity relative to protein concentration. Kinetic values were determined for FX activation by an intrinsic Xase assay using equimolar FVIIIa and FIXa (0.25 nM) 0.25 nM FVIIIa, 0.25 nM or 0-20 nM FIXa and 0-500 nM FX in the presence of 20 μM phospholipids. […] Data are represented as means ± SEM from at least two independent experiments.

T1 sequence (P00740 47-191 limits assumed, form in doubt, chain 1 of 2): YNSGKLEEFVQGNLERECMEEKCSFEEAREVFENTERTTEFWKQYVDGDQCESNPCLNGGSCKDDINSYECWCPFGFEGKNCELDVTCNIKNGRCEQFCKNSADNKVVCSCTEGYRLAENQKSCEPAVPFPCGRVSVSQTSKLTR
T1 sequence (P00740 227-461 limits assumed, form in doubt, chain 2 of 2): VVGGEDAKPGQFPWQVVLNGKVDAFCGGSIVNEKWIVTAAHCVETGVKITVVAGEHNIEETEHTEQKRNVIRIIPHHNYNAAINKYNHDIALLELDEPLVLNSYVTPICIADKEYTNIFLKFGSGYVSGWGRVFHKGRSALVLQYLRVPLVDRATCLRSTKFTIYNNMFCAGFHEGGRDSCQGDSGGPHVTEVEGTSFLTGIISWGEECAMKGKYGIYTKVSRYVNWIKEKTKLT

| Binder | Kd [nM] |
| --- | --- |
| FVIIIa-QQVV (thrombin-activated B-domain deleted FVIII R336Q/R562Q/D519V/E665V) (other, also called FVIII-QQVV; FVIII-QQ/VV) chain 1: ATRRYYLGAVELSWDYMQSDLGELPVDARFPPRVPKSFPFNTSVVYKKTLFVEFTDHLFNIAKPRPPWMGLLGPTIQAEVYDTVVITLKNMASHPVSLHAVGVSYWKASEGAEYDDQTSQREKEDDKVFPGGSHTYVWQVLKENGPMASDPLCLTYSYLSHVDLVKDLNSGLIGALLVCREGSLAKEKTQTLHKFILLFAVFDEGKSWHSETKNSLMQDRDAASARAWPKMHTVNGYVNRSLPGLIGCHRKSVYWHVIGMGTTPEVHSIFLEGHTFLVRNHRQASLEISPITFLTAQTLLMDLGQFLLFCHISSHQHDGMEAYVKVDSCPEEPQLQMKNNEEAEDYDDDLTDSEMDVVRFDDDNSPSFIQIR chain 2: SVAKKHPKTWVHYIAAEEEDWDYAPLVLAPDDRSYKSQYLNNGPQRIGRKYKKVRFMAYTDETFKTREAIQHESGILGPLLYGEVGDTLLIIFKNQASRPYNIYPHGITDVRPLYSRRLPKGVKHLKDFPILPGEIFKYKWTVTVEVGPTKSDPRCLTRYYSSFVNMERDLASGLIGPLLICYKESVDQQGNQIMSDKRNVILFSVFDENRSWYLTENIQRFLPNPAGVQLEDPEFQASNIMHSINGYVFDSLQLSVCLHEVAYWYILSIGAQTDFLSVFFSGYTFKHKMVYVDTLTLFPFSGETVFMSMENPGLWILGCHNSDFRNRGMTALLKVSSCDKNTGDYYEDSYEDISAYLLSKNNAIEPR chain 3: SFQKKTRHYFIAAVERLWDYGMSSSPHVLRNRAQSGSVPQFKKVVFQEFTDGSFTQPLYRGELNEHLGLLGPYIRAEVEDNIMVTFRNQASRPYSFYSSLISYEEDQRQGAEPRKNFVKPNETKTYFWKVQHHMAPTKDEFDCKAWAYFSDVDLEKDVHSGLIGPLLVCHTNTLNPAHGRQVTVQEFALFFTIFDETKSWYFTENMERNCRAPCNIQMEDPTFKENYRFHAINGYIMDTLPGLVMAQDQRIRWYLLSMGSNENIHSIHFSGHVFTVRKKEEYKMALYNLYPGVFETVEMLPSKAGIWRVECLIGEHLHAGMSTLFLVYSNKCQTPLGMASGHIRDFQITASGQYGQWAPKLARLHYSGSINAWSTKEPFSWIKVDLLAPMIIHGIKTQGARQKFSSLYISQFIIMYSLDGKKWQTYRGNSTGTLMVFFGNVDSSGIKHNIFNPPIIARYIRLHPTHYSIRSTLRMELMGCDLNSCSMPLGMESKAISDAQITASSYFTNMFATWSPSKARLHLQGRSNAWRPQVNNPKEWLQVDFQKTMKVTGVTTQGVKSLLTSMYVKEFLISSSQDGHQWTLFFQNGKVKVFQGNQDSFTPVVNSLDPPLLTRYLRIHPQSWVHQIALRMEVLGCEAQDLY | 1.2 |
| FVIIIa-VV (thrombin-activated B-domain deleted FVIII D519V/E665V) (other, also called FVIII-VV) chain 1: ATRRYYLGAVELSWDYMQSDLGELPVDARFPPRVPKSFPFNTSVVYKKTLFVEFTDHLFNIAKPRPPWMGLLGPTIQAEVYDTVVITLKNMASHPVSLHAVGVSYWKASEGAEYDDQTSQREKEDDKVFPGGSHTYVWQVLKENGPMASDPLCLTYSYLSHVDLVKDLNSGLIGALLVCREGSLAKEKTQTLHKFILLFAVFDEGKSWHSETKNSLMQDRDAASARAWPKMHTVNGYVNRSLPGLIGCHRKSVYWHVIGMGTTPEVHSIFLEGHTFLVRNHRQASLEISPITFLTAQTLLMDLGQFLLFCHISSHQHDGMEAYVKVDSCPEEPQLRMKNNEEAEDYDDDLTDSEMDVVRFDDDNSPSFIQIR chain 2: SVAKKHPKTWVHYIAAEEEDWDYAPLVLAPDDRSYKSQYLNNGPQRIGRKYKKVRFMAYTDETFKTREAIQHESGILGPLLYGEVGDTLLIIFKNQASRPYNIYPHGITDVRPLYSRRLPKGVKHLKDFPILPGEIFKYKWTVTVEVGPTKSDPRCLTRYYSSFVNMERDLASGLIGPLLICYKESVDQRGNQIMSDKRNVILFSVFDENRSWYLTENIQRFLPNPAGVQLEDPEFQASNIMHSINGYVFDSLQLSVCLHEVAYWYILSIGAQTDFLSVFFSGYTFKHKMVYVDTLTLFPFSGETVFMSMENPGLWILGCHNSDFRNRGMTALLKVSSCDKNTGDYYEDSYEDISAYLLSKNNAIEPR chain 3: SFQKKTRHYFIAAVERLWDYGMSSSPHVLRNRAQSGSVPQFKKVVFQEFTDGSFTQPLYRGELNEHLGLLGPYIRAEVEDNIMVTFRNQASRPYSFYSSLISYEEDQRQGAEPRKNFVKPNETKTYFWKVQHHMAPTKDEFDCKAWAYFSDVDLEKDVHSGLIGPLLVCHTNTLNPAHGRQVTVQEFALFFTIFDETKSWYFTENMERNCRAPCNIQMEDPTFKENYRFHAINGYIMDTLPGLVMAQDQRIRWYLLSMGSNENIHSIHFSGHVFTVRKKEEYKMALYNLYPGVFETVEMLPSKAGIWRVECLIGEHLHAGMSTLFLVYSNKCQTPLGMASGHIRDFQITASGQYGQWAPKLARLHYSGSINAWSTKEPFSWIKVDLLAPMIIHGIKTQGARQKFSSLYISQFIIMYSLDGKKWQTYRGNSTGTLMVFFGNVDSSGIKHNIFNPPIIARYIRLHPTHYSIRSTLRMELMGCDLNSCSMPLGMESKAISDAQITASSYFTNMFATWSPSKARLHLQGRSNAWRPQVNNPKEWLQVDFQKTMKVTGVTTQGVKSLLTSMYVKEFLISSSQDGHQWTLFFQNGKVKVFQGNQDSFTPVVNSLDPPLLTRYLRIHPQSWVHQIALRMEVLGCEAQDLY | 1.6 |
